We go through one protein from PMC3763546, “Structural insight into negative DNA supercoiling by DNA gyrase, a bacterial type 2A DNA topoisomerase” (Nucleic Acids Research, 2013).

This data set deals with the molecule itself. Nature of the data set: native MS; native ESI-MS (time-of-flight), 200 mM ammonium acetate pH 7.5, sample at 8 uM; without and with ADPNP, without and with the 155 bp DNA.

B1: Thermus thermophilus GyrB-GyrA fusion protein (GyrBA-fus) (enzyme)
chain: MSYDASAIRVLKGLEGVRHRPAMYIGGTGVEGYHHLFKEILDNAVDEALAGYATEILVRLNEDGSLTVEDNGRGIPVDLMPEEGKPAVEVIYTTLHSGGKFEQGAYKVSGGLHGVGASVVNALSEWTVVEVFREGKHHRIAFSRGEVTEPLRVVGEAPRGKTGTRVTFKPDPEIFGNLRFDPSKIRARLREVAYLVAGLKLVFQDRQHGKEEVFLDKGGVASFAKALAEGEDLLYEKPFLIRGTHGEVEVEVGFLHTQGYNAEILTYANMIPTRDGGTHLTAFKSAYSRALNQYAKKAGLNKEKGPQPTGDDLLEGLYAVVSVKLPNPQFEGQTKGKLLNPEAGTAVGQVVYERLLEILEENPRIAKAVYEKALRAAQAREAARKARELVRRQNPLESDELPGKLADCQTENPEEAELFIVEGDSAGGSAKQGRDRRFQAILPLRGKILNVEKAGLSKALKNAEVRAMVSAIGVGIGGDGEAHFDLEGLRYHKIIIMTDADVDGSHIRTLLLTFFYRYMRPLIERGHVYIAQPPLYRLQVGKKVEYLYSDEELQARLKELEGKHYEVQRFKGLGEMNPEQLWETTMNPEKRVLKRVELQDALEASELFEKLMGQEVAPRREFIEEHARYAELDIGDLMAQVLPVEITEELKQSFINYAMSVIVDRALPDVRDGLKPVQRRILFGAYQEGVLPGRKHVKSAKIVGEVMGKYHPHGDAAIYDALVRMAQPWNLRYPLIDGQGNFGSIDGDPPAAQRYTEARLSPIGAEMLLDIDKDTVDFRPNYDGSLKEPEVLPAAIPNLLVNGASGIAVGMATSLPPHNLSEVVDALVAMIENPAITLEEVMRHLPGPDFPTGGKLSKKGIKEAYATGRGSLKVRAKVRVEEKGQRPVLVVTEIPYQVNKASLIAQIAALVKAKKIEDIVGLRDESDRQGLRIAIELKRGANPQVVLNQLYKHTALQTSFTVNLLAIVDGEPKVLSLLDLMRHYLDHRKEVVRRRSLFELRKAEERAHVLEGLLIALDHIDEVIALIRGSEDAPKARIALMERFGLSEAQAQAILDMRLQRLVALEREKLLEEYRGLMEEIARLKAILEDEARLLAEVKADLLRVKEKYGDARRTLITEFEETFNPEDLIEDEPMVITLTAQGFLKRLPLESYRAQGRGGKGLLAGRTKEEDEATHVFVADAHDDLLLFTNRGRVYRLKVYELPEMGRQARGVHVKSLLPLAEDEEVAALLSVRGLDQEGYLVFATERGLVKRTALKEYQNLGQAGLIAIRLQEGDRLVGVALSDPEDEAILATQEGQAIRFPLEEVRATGRDTQGVIGVRFKKPEDRVVSLVVVKPGEMVDLLSVSTRGYGKRTPLSEYPLQGRGGMGVITYAVSTKVGRLAALLKVRGGEDLLVLSRRGLAIRTPVAEIRQYSRATAGVRVMNLPEDDEVASAFVVEEEK
notes: DNA gyrase subunit B (GyrB), Thermus thermophilus, amplified from genomic DNA; three-amino acid G-D-L linker between the C-terminus of GyrB and the N-terminus of GyrA; DNA gyrase subunit A (GyrA), Thermus thermophilus, amplified from genomic DNA; The His10 tag stands upstream of a PreScission protease (P3C) site; Details of cloning and purification are in the Supplementary Methods; A dimer of the …
As for B1, the “stoichiometry N” value turned out to be 2.

As a reminder, the stoichiometry N is the number of molecules, sites or subunits per partner or assembly.
